From the supplement of paper PMC9732359
± gives the uncertainty stated by the source.

Experiment: protein stability index of a GFP-peptide fusion (yeast GPS) (PSI 1-4); higher = more stable; sorted into four equal gates, so the index is relative within each strain
Outline: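 For each peptide, the protein stability index sums the read frequency in every gate after multiplying it by the gate number. Read frequencies came from plasmids that were PCR-amplified from each gate and Illumina-sequenced, with reads assigned to strains by barcodes. The gates were four equal bins of GFP/Cherry fluorescence ratio applied to mid-log yeast in leucine-free medium carrying a pooled library of tiled 17-residue yeast protein peptides fused downstream of GFP on a Cherry-expressing plasmid.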

Row | Sequence | protein stability index (doa10∆) | protein stability index (pdr5∆) | protein stability index (san1∆) | protein stability index (ubr1∆)
1 | SEFDSRVKAMEVDEKPT [RPT5] | 2.77 ± 0.11 | 2.76 ± 0.089 | 3.08 ± 0.14 | 2.97 ± 0.062
2 | FSGKGVHKLRHYLVNLT [GRR1] | 1.28 ± 0.037 | 1.44 ± 0.034 | 1.39 ± 0.07 | 1.45 ± 0.029
3 | TDRQKKLLGVDMQSSVD [YLR018C/POM34] | 3.2 ± 0.057 | 3.08 ± 0.055 | 3.19 ± 0.043 | 3.15 ± 0.044
4 | FAEYIQANIQLYSIRED [PRE1] | 2.39 ± 0.1 | 2.67 ± 0.091 | 2.49 ± 0.068 | 2.59 ± 0.091
5 | MPVAPTMEVKSFPILDQ [YMR129W/POM152] | 1.36 ± 0.1 | 1.29 ± 0.11 | 1.2 ± 0.2 | 1.22 ± 0.093
6 | FLRTMKLTSEETVFNYR [GRR1] | 3.11 ± 0.066 | 2.81 ± 0.067 | 3 ± 0.06 | 3.02 ± 0.052
7 | KTSSGSYNYVENGIEVE [ITC1] | 3.31 ± 0.18 | 3.2 ± 0.2 | 2.95 ± 0.12 | 3.31 ± 0.17
8 | FHSAVENLVQGNGNVSE [YCG1] | 3.21 ± 0.092 | 2.97 ± 0.067 | 3.23 ± 0.069 | 3.02 ± 0.12
9 | ALETENMEIRNLRLKIL [GRR1] | 3.14 ± 0.065 | 2.9 ± 0.043 | 2.82 ± 0.052 | 2.7 ± 0.03
10 | QGSVRRLTVSARDAPTK [QCR2] | 2.93 ± 0.12 | 3.16 ± 0.076 | 2.92 ± 0.086 | 3.14 ± 0.061
11 | YLNLLQEDELDEGTALS [RPB10] | 3.38 ± 0.11 | 3.3 ± 0.13 | 3.4 ± 0.11 | 3.18 ± 0.16
12 | TEEPDLAIADVETKLET [DSN1] | 3.2 ± 0.12 | 3.35 ± 0.11 | 2.48 ± 0.097 | 3.5 ± 0.14
13 | KKLFQKKENLTRDETVS [YML103C/NUP188] | 2.65 ± 0.23 | 3.29 ± 0.12 | 3.01 ± 0.08 | 3.3 ± 0.088
14 | DSLIFKDSSLNYSSESY [YJL039C/NUP192] | 3.43 ± 0.089 | 3.25 ± 0.1 | 2.71 ± 0.21 | 3.17 ± 0.14
15 | TIGKRRTTTNTTAEPKA [TAF14] | 3.07 ± 0.064 | 3.26 ± 0.042 | 3.15 ± 0.045 | 3.2 ± 0.05
16 | VFNNGIVVLVPKFGVEG [DIS3] | 2.22 ± 0.073 | 2.24 ± 0.072 | 2.27 ± 0.074 | 2.32 ± 0.053
17 | MASTELSLKRTLTDILE [RPN4] | 1.26 ± 0.18 | 2.65 ± 0.17 | 2.72 ± 0.16 | 2.02 ± 0.29
18 | NFQISKKMDDYIHRIGR [PRP28] | 3.12 ± 0.24 |  | 3.21 ± 0.13 | 
19 | NVVIDEAVEIPVNSADG [SME1] | 2.97 ± 0.084 | 3.35 ± 0.068 | 3.24 ± 0.041 | 2.98 ± 0.045
20 | NFFQAPQDYVLERVKRI [YML031W/NDC1] | 2.81 ± 0.064 | 2.62 ± 0.045 | 2.9 ± 0.068 | 2.77 ± 0.036
21 | MSPLECRNILGVTSLIK [RPP1] | 2.23 ± 0.052 | 1.96 ± 0.054 | 1.84 ± 0.079 | 2.08 ± 0.044
22 | RRNRYKTYYGIHCLAVR [RPN7] | 1.23 ± 0.05 | 1.38 ± 0.073 | 1.29 ± 0.13 | 1.17 ± 0.044
23 | DVKSSDSLKLNSKPVEL [YJL041W/NSP1] | 3.27 ± 0.098 | 3.09 ± 0.12 | 3.1 ± 0.14 | 3.23 ± 0.12
24 | TSPGYSPGSPAYSPKQD [RPO21] | 2.31 ± 0.087 | 2.1 ± 0.063 | 2.39 ± 0.11 | 1.77 ± 0.05
25 | SFVLNKNTIDFERFPSP [RPN4] | 2.4 ± 0.059 | 2.66 ± 0.058 | 2.84 ± 0.057 | 2.88 ± 0.052
26 | ELQKIWQIEEAGNSQIT [SRB5] | 2.77 ± 0.08 | 3.04 ± 0.11 | 3.08 ± 0.048 | 3.05 ± 0.066
